Source: paper doi:10.1101/2025.08.03.668247, “The structure of Egalitarian in complex with the K10 mRNA localization signal reveals a modular binding surface required for function”
Residue numbers refer to the chain shown, from its start.

Columns and labels:
Assay in all cases: fluorescence anisotropy; FA: 20 mM HEPES-NaOH pH 7.5, 100 mM NaCl, 10% glycerol, 20 C, 10 nM FAM-RNA; competition: 150 nM Egl512-819 + 10 nM FAM-K10 TLS, same buffer
Conditions in all cases: protein: recombinant; tags: N-terminal GST; label: 5'-6-FAM; hairpin with two bulges
[1] = biological target: T1, K751A (Drosophila melanogaster, UniProt Q9W1K4 512-819, K751A)
T1 sequence: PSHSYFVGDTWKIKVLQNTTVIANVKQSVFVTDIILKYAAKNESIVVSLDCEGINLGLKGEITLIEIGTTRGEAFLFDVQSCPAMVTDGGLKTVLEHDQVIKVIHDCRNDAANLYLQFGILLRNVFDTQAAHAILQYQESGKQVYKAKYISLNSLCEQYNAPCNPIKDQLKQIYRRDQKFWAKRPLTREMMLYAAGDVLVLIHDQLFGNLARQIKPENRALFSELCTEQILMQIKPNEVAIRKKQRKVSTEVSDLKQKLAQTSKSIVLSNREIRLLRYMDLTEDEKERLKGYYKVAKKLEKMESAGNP

[2] = biological target: T2, Egl512-931 (Drosophila melanogaster, UniProt Q9W1K4 512-931)
T2 sequence: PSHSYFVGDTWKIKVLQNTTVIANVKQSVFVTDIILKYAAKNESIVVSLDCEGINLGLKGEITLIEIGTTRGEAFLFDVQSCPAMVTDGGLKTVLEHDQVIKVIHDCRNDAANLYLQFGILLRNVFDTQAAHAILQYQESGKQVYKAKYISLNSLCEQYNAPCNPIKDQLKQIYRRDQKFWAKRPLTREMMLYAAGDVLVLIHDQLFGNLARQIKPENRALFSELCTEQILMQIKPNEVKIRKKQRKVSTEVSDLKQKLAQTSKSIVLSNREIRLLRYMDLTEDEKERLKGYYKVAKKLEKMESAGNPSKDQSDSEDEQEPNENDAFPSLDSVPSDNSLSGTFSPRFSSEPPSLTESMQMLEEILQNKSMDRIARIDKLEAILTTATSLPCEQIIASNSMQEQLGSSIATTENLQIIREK

[3] = biological target: T3, D617A/R619A/N620A (Drosophila melanogaster, UniProt Q9W1K4 512-819, D617A;R619A;N620A)
T3 sequence: T1 sequence with D106A, R108A, N109A, A240K

[4] = biological target: T4, L-EHD (Egl743-819) (Drosophila melanogaster, UniProt Q9W1K4 743-819)
T4 sequence: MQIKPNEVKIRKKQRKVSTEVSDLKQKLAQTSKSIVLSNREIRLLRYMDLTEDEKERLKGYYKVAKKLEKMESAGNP

[5] = biological target: T5, K755E (Drosophila melanogaster, UniProt Q9W1K4 512-819, K755E)
T5 sequence: T1 sequence with A240K, K244E

[6] = biological target: T6, Egl512-1004 (Drosophila melanogaster, UniProt Q9W1K4 512-1004)
T6 sequence: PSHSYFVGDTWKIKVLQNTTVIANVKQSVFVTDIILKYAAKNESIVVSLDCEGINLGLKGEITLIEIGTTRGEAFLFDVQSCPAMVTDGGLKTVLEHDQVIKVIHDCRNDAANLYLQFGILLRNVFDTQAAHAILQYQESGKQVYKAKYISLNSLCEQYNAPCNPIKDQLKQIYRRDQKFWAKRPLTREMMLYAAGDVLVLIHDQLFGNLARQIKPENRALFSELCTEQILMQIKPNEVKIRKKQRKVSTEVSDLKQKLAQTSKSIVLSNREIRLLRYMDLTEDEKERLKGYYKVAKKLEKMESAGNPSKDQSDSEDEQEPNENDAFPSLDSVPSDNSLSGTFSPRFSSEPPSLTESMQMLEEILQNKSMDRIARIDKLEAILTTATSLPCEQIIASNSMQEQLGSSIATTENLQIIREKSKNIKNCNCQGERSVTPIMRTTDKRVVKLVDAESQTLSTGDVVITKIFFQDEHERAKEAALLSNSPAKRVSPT

B1: K10 TLS (FAM) (structured_RNA)
RNA: CUUGAUUGUAUUUUUAAAUUAAUUCUUAAAAACUACAAAUUAAG
**Q.** For B1, which Kd [1] is on record?
**A.** 140 ± 10 nM

**Q.** What about the Kd [2] of the same binder?
**A.** 164 ± 7 nM

**Q.** What about the Kd [3] of the same binder?
**A.** 273 ± 12 nM

**Q.** What about the Kd [4] of the same binder?
**A.** 262 ± 9 nM

**Q.** What about the Kd [5] of the same binder?
**A.** 133 ± 2 nM

**Q.** What about the Kd [6] of the same binder?
**A.** 144 ± 6 nM
